Residue numbers refer to the chain shown, from its start. Names and notes keep the numbering of the source.
B1: RNase E-NTD (residues 1-598, Δ568–582, D346C) (domain or fragment)
chain: not shown
notes: also called mutant RNase E‐NTD; RNase E catalytic domain; source: E. coli BL21(DE3), pET16 vector, purified (IMAC, butyl Sepharose, Superdex 200 SEC)
B2: RapZ (full-length, purified recombinant) (natural protein, E. coli, UniProt P0A894 1-284, looked up)
chain: MVLMIVSGRSGSGKSVALRALEDMGFYCVDNLPVVLLPDLARTLADREISAAVSIDVRNMPESPEIFEQAMSNLPDAFSPQLLFLDADRNTLIRRYSDTRRLHPLSSKNLSLESAIDKESDLLEPLRSRADLIVDTSEMSVHELAEMLRTRLLGKRERELTMVFESFGFKHGIPIDADYVFDVRFLPNPHWDPKLRPMTGLDKPVAAFLDRHTEVHNFIYQTRSYLELWLPMLETNNRSYLTVAIGCTGGKHRSVYIAEQLADYFRSRGKNVQSRHRTLEKRKP
notes: The Strep-tag is cleavable by TEV protease; Construct and procedure follow Gonzalez et al, 2017; In all complexes with RNase E-NTD the sRNA GlmZ was present; also called RapZ tetramer; full‐length RapZ; source: E. coli Rosetta, plasmid pMCSG7, purified (Strep Trap HP, Superdex 200 SEC)
B3: T25-RapZ 4 substitutions (T161A, Y240A, N271A, Q273A; BACTH fusion) (natural protein, E. coli, UniProt P0A894 1-284, looked up)
chain: B2 chain with T161A, Y240A, N271A, Q273A
notes: RapZ, E. coli, with alanine substitutions of Q273, N271, Y240 and T161; source: bacterial two-hybrid fusion (pKT25 plasmid) in E. coli BTH101

What was measured:
[1] = biological target: the molecule itself; assay: cryo-EM structure; RNase E-NTD (D346C), full-length RapZ and full-length GlmZ RNA at 5:25:10 μM in 25 mM HEPES pH 7.5, 300 KCl, 1 mM MgCl2, cross-linked with 0.01% glutaraldehyde, Superose 6 SEC, graphene oxide-coated grids; binary RapZ:GlmZ and ternary classes from one dataset
[2] = biological target: B1; assay: as above; details: both partners purified
[3] = biological target: T1, RNase E-NTD (wild type, BACTH fusion) (E. coli, UniProt P21513 1-529); assay: two-hybrid; adenylate cyclase-based bacterial two-hybrid (BACTH) in E. coli BTH101, pKT25 (T25-RapZ) and pUT18C-type plasmids, LB with 1 mM IPTG, β-galactosidase activity; endogenous GlmZ present in the cell; details: partners not purified
T1 construct: RNase E, E. coli, N-terminal catalytic domain (NTD); The text calls the two-hybrid partner 'RNase E' and its variants 'RNase E‐NTD variants'; also called RNase E wild type; source: bacterial two-hybrid fusion (pUT18C-type plasmid) in E. coli BTH101

stoichiometry N [2] | fold decrease of the BACTH signal against wild-type RapZ [3] [fold] | Binder | stoichiometry N [1]
 |  | B1 | 4
2 RapZ tetramers per RNase E-NTD tetramer |  | B2 | 4
 | 2 | B3 | 
